Reference: patent publication US20260116980A1

Experiments:
B7H3 on H358 tumor cells [1] = biological target: B7H3 on H358 tumor cells (UniProt Q5ZPR3); assay: FACS on H358 cells, 1 h on ice, fluorescence-labelled anti-human Fc
B7H3 on H358 tumor cells [2] = biological target: B7H3 on H358 tumor cells (UniProt Q5ZPR3); assay: flow cytometry on H358 cells, His-tag antibody iFluor 488 detection; MFImax of the four parameter fit
B7H3 on H358 tumor cells [3] = biological target: B7H3 on H358 tumor cells (UniProt Q5ZPR3); assay: flow cytometry on H358 cells, His-tag antibody iFluor 488 detection, four parameter logistic model

Sequence of B7H3 on H358 tumor cells (Q5ZPR3 29-534): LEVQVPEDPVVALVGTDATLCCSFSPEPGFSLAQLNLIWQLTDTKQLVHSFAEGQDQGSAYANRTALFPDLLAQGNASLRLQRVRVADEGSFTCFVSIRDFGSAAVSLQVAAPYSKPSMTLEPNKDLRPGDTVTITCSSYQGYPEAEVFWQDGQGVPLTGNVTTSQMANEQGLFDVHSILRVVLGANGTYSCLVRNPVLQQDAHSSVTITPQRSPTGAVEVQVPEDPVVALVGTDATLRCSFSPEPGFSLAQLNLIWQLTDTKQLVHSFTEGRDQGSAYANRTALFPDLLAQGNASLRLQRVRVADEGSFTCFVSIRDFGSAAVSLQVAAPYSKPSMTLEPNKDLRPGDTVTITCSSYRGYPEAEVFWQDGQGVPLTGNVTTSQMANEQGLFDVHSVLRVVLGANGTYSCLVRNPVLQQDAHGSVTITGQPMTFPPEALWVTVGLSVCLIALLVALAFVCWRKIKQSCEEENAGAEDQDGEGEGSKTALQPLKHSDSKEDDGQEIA

| Binder | EC50 (read off the curve) (B7H3 on H358 tumor cells [1]) [nM] | MFI (B7H3 on H358 tumor cells [2]) | EC50 (B7H3 on H358 tumor cells [3]) [nM] |
| --- | --- | --- | --- |
| BGA-6938 in wildtype IgG1/kappa format (antibody, V domains shown) VH: QVQLQESGPGLVKPSGTLSLTCAVSGGSISTSNYWNWVRQSPGKGLEWIGEIYPTGNTNYSPSLKSRVTISIDKSKNQFSLKLNSVTAADTAVYYCARGYNWFDPWGQGTLVTVSS VL: EIVLTQSPGTLSLSPGERATLSCRTSQSINAILLAWYQQKPGQAPRLLIYGASSRATGIPDRFSGSGSGTDFTLSISRLEPEDFAVYYCQQYGSSPRTFGQGTKVEIKR | 0.5 |  |  |
| scFv of BGA-6938 VL-VH (scFv) scFv: EIVLTQSPGTLSLSPGERATLSCRTSQSINAILLAWYQQKPGQAPRLLIYGASSRATGIPDRFSGSGSGTDFTLSISRLEPEDFAVYYCQQYGSSPRTFGQGTKVEIKGGGGSGGGGSGGGGSGGGGSQVQLQESGPGLVKPSGTLSLTCAVSGGSISTSNYWNWVRQSPGKGLEWIGEIYPTGNTNYSPSLKSRVTISIDKSKNQFSLKLNSVTAADTAVYYCARGYNWFDPWGQGTLVTVSSHHHHHH |  | 782000 | 2.05 |
